The results in this text go back to US20240261333A1, “NOVEL TARGETS FOR ENHANCING ANTI-TUMOR IMMUNITY” (THE BROAD INSTITUTE, INC., priority 2021, published 2024).

One experiment concerns the target DNAJA3 (human) (UniProt Q96EY1). Kind of experiment: IgG control IP from lysate of C-FLAG B3GNT2 cells, mass spectrometry.
A further experiment has as its target PSMA5 (human) (UniProt P28066). The description is as above.
In another experiment the target is PXN (human) (UniProt P49023). The description is as above.
The target in a further experiment is RPL34 (human) (UniProt P49207). The experiment is described as above.
Another experiment addresses TUBA1C (human) (UniProt Q9BQE3). The description is as above.
For another experiment, the target named is CPT1A (human) (UniProt P50416). Nature of the experiment: co-IP with IgG control, lysate of N-FLAG B3GNT2 cells, mass spectrometry.
The target in another experiment is RPS20 (human) (UniProt P60866). The description is as above.
In another experiment the target is TM9SF1 (human) (UniProt O15321). The experiment is described as above.
In another experiment the target is ATP1A1 (human) (UniProt P05023). Kind of experiment: co-IP/MS, anti-FLAG IP of N-FLAG B3GNT2 cell lysate.
The next experiment deals with CALU (human) (UniProt O43852). The experiment is described as above.
CALU (human), sequence (O43852 20-315 limits assumed): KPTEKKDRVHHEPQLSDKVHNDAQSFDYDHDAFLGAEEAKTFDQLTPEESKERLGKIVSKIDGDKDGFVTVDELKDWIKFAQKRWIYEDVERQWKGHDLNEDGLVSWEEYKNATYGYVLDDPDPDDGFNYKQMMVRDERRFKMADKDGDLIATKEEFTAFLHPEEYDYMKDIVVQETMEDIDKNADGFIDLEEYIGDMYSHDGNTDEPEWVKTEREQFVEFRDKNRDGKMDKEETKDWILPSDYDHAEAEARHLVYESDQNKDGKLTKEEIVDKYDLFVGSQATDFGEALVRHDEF
The target in the next experiment is CANX (human) (UniProt P27824). The description is as above.
CANX (human), sequence (P27824 21-592 limits assumed): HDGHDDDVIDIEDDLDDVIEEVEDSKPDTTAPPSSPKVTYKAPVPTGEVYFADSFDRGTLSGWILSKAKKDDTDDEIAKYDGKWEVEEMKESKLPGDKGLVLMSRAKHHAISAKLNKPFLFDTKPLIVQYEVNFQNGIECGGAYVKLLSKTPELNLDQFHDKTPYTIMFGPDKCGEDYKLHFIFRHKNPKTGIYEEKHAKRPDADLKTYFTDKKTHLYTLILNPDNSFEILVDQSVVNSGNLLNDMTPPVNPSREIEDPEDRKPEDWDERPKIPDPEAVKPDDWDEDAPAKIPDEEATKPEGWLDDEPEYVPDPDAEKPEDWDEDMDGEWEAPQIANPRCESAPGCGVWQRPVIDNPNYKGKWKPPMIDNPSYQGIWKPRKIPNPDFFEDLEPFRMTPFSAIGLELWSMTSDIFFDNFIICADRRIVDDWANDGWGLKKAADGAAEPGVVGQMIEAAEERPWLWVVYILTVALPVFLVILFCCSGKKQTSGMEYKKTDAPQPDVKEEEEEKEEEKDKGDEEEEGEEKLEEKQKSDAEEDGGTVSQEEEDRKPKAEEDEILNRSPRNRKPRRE
The target of another experiment is CAPZA1 (human) (UniProt P52907). Described as above.
The next experiment has as its target CAPZB (human) (UniProt P47756). The description is as above.
The target of another experiment is CASP14 (human) (UniProt P31944). The description is as above.
CASP14 (human), sequence (P31944 whole entry): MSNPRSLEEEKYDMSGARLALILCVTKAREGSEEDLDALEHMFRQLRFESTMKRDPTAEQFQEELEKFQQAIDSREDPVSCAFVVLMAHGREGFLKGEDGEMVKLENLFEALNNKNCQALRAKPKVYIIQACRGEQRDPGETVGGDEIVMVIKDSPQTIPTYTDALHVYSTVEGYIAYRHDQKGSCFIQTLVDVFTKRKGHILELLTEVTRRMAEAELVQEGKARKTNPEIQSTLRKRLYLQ
The target in the next experiment is CKAP4 (human) (UniProt Q07065). The description is as above.
CKAP4 (human), sequence (Q07065 whole entry): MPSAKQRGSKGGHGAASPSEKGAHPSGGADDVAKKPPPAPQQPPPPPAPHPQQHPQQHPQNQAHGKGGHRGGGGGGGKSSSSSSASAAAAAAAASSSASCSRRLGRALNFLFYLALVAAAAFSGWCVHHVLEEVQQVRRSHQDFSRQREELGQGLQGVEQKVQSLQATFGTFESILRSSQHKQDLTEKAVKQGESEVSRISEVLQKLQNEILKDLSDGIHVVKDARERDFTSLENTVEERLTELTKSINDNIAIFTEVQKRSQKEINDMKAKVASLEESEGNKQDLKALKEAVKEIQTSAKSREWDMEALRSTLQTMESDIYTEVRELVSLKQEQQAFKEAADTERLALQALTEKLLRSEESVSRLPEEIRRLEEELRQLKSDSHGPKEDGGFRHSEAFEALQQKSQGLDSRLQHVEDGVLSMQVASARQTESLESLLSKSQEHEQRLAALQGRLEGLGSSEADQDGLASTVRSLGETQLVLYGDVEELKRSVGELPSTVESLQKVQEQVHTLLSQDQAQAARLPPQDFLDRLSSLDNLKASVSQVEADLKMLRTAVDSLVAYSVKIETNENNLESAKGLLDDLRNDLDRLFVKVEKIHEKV
The target of the next experiment is DNAJA1 (human) (UniProt P31689). The experiment is described as above.
Another experiment deals with ERLIN1 (human) (UniProt O75477). The description is as above.
A further experiment addresses ERLIN2 (human) (UniProt O94905). Described as above.
In a further experiment the target is FAM3C (human) (UniProt Q92520). The experiment is described as above.
The next experiment has as its target GCN1 (human) (UniProt Q92616). Described as above.
A further experiment deals with HSD17B12 (human) (UniProt Q53GQ0). Described as above.
A further experiment deals with IPO4 (human) (UniProt Q8TEX9). The description is as above.
In a further experiment the target is LRP1 (human) (UniProt Q07954). Described as above.
The next experiment has as its target PCBP1 (human) (UniProt Q15365). Described as above.
The target in a further experiment is PDIA6 (human) (UniProt Q15084). The experiment is described as above.
Another experiment deals with PIP (human) (UniProt P12273). Described as above.
PIP (human), sequence (P12273 29-146 limits assumed): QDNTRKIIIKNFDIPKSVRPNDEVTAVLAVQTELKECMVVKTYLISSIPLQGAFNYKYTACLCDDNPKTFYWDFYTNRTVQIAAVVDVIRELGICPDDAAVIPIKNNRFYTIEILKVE
The target of a further experiment is RCN2 (human) (UniProt Q14257). The description is as above.
Another experiment addresses RPL12 (human) (UniProt P30050). The experiment is described as above.
In a further experiment the target is RPL13A (human) (UniProt P40429). The experiment is described as above.
A further experiment deals with RPL23A (human) (UniProt P62750). Described as above.
The target in the next experiment is RPLPO (human) (UniProt P05388). The description is as above.
The next experiment concerns the target RPS12 (human) (UniProt P25398). The description is as above.
The next experiment concerns the target RPS7 (human) (UniProt P62081). Described as above.
The target of another experiment is SLC25A4 (human) (UniProt P12235). The experiment is described as above.
SLC25A4 (human), sequence (P12235 2-298 limits assumed): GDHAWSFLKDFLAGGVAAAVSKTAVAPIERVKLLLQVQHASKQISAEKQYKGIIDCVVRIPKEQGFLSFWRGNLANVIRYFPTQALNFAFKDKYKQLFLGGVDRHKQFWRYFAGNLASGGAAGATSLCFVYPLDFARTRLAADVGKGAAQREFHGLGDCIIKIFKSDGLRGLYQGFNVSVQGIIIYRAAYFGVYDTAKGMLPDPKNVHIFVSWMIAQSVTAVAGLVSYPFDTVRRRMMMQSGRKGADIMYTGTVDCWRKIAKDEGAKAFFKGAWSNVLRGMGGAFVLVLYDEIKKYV
Another experiment deals with SQSTM1 (human) (UniProt Q13501). Described as above.
The target in another experiment is TGM3 (human) (UniProt Q08188). Described as above.
TGM3 (human), sequence (Q08188 2-693 limits assumed): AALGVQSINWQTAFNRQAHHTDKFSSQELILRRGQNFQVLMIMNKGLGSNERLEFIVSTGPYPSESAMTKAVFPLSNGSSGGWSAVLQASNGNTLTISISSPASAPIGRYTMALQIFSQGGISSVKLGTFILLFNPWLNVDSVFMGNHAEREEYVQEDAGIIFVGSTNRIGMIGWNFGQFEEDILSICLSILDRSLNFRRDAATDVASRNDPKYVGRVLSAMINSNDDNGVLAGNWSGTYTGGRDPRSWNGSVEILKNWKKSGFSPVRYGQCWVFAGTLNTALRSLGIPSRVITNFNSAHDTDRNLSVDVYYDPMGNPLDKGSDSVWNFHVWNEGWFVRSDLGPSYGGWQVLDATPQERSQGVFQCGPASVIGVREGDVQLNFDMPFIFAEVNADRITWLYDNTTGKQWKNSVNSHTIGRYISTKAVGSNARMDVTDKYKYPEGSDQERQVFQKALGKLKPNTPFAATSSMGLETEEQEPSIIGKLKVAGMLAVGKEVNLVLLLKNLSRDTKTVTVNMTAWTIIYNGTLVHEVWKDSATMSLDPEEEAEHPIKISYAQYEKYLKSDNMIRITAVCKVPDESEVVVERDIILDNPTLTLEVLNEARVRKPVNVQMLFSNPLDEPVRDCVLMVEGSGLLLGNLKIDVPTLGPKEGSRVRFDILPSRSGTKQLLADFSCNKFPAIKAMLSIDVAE
The target in the next experiment is TUBB (human) (UniProt P07437). The description is as above.
TUBB (human), sequence (P07437 whole entry): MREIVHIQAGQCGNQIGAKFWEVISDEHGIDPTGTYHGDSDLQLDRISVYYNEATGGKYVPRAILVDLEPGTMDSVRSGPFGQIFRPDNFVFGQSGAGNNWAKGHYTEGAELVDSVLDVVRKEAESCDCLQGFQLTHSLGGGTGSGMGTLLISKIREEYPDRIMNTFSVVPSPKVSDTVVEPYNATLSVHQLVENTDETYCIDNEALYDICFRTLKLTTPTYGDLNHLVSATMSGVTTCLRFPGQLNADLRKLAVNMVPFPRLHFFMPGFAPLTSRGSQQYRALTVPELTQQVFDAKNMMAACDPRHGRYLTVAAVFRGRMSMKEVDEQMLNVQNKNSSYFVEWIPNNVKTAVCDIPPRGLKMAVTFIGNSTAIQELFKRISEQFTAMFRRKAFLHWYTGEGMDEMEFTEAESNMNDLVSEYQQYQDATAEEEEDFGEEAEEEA
The target in a further experiment is UQCRC2 (human) (UniProt P22695). Described as above.
UQCRC2 (human), sequence (P22695 15-453 limits assumed): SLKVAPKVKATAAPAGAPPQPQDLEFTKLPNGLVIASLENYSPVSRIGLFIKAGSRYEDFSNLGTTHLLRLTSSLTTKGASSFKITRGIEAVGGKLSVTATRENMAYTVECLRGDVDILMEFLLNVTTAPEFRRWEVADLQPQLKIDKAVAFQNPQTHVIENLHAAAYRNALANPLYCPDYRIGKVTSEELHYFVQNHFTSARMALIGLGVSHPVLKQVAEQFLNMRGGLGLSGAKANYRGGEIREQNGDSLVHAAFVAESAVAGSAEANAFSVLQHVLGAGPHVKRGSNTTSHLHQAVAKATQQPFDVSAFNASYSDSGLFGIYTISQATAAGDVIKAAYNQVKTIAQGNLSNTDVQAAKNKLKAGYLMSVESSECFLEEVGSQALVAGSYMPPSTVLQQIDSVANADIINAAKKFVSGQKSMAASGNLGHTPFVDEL

ERLIN2 (human), sequence (O94905 whole entry): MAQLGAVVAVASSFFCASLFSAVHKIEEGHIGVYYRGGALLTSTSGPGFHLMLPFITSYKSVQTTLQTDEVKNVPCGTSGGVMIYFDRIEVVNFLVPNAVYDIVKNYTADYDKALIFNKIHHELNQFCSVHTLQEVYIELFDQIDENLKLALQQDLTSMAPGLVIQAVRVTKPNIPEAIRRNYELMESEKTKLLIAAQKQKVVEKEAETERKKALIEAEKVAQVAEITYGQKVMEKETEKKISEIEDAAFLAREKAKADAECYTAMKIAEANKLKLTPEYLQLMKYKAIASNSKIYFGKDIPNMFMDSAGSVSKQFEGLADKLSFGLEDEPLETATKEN
DNAJA3 (human), sequence (Q96EY1 other isoform, or with tags, fused parts or gaps limits assumed): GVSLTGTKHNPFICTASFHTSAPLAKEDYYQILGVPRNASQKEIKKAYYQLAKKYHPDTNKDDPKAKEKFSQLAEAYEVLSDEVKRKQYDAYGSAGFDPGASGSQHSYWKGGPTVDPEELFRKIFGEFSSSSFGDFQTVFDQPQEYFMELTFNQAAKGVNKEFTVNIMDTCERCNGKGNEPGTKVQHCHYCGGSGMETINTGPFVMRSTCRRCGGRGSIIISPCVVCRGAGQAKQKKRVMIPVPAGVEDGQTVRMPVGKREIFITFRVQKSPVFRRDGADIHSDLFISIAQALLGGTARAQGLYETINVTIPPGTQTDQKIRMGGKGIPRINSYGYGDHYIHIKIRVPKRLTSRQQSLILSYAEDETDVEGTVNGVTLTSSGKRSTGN
PCBP1 (human), sequence (Q15365 whole entry): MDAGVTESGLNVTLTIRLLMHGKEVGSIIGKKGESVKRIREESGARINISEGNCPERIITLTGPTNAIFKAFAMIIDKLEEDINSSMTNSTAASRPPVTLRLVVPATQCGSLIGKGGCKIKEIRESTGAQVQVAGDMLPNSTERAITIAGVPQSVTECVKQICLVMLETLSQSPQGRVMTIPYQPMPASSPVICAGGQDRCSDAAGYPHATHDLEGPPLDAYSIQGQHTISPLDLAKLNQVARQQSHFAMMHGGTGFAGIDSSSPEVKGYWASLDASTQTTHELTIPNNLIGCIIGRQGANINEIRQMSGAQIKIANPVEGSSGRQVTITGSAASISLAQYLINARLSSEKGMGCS

Turning to “IgG control (Millipore Sigma 12-371) (antibody)”, the co-IP mass spectrometry count with DNAJA3 (human) came to 0; with PSMA5 (human), 0; with PXN (human), 0; with RPL34 (human), 0; with TUBA1C (human) it was 14. The co-IP/MS count, N-term IgG is 0 with CPT1A (human), 4 in the experiment with RPS20 (human) and 0 with TM9SF1 (human).
As to “N-terminal FLAG tagged B3GNT2 (from UniProt Q9NY97 1-397) (enzyme)”, the co-IP mass spectrometry count stood at 11 in the experiment with ATP1A1 (human); 10 with CALU (human); 6 with CANX (human); 2 with CAPZA1 (human); 2 with CAPZB (human); 8 with CASP14 (human). For the same substance, the co-IP mass spectrometry count with CKAP4 (human) came out at 2; with DNAJA1 (human), 6; in the experiment with ERLIN1 (human), 11; with ERLIN2 (human) it was 8; with FAM3C (human) it was 2; in the experiment with GCN1 (human), 14. Further, the co-IP mass spectrometry count was determined as 10 with HSD17B12 (human); 3 in the experiment with IPO4 (human); 2 with LRP1 (human); 4 with PCBP1 (human); 5 with PDIA6 (human); 4 in the experiment with PIP (human). The co-IP mass spectrometry count with RCN2 (human) is 7; with RPL12 (human), 9; in the experiment with RPL13A (human) it was 4; in the experiment with RPL23A (human), 6; in the experiment with RPLPO (human), 6; in the experiment with RPS12 (human) it was 3. Besides, the co-IP mass spectrometry count came out at 8 with RPS7 (human); 9 in the experiment with SLC25A4 (human); 3 with SQSTM1 (human); 9 in the experiment with TGM3 (human); 164 with TUBB (human); 13 in the experiment with UQCRC2 (human).
